Laboratory results: patent US20260201008A1, “SECRETIN-DERIVED GLP1R SELECTIVE AGONISTS” (GUBRA A/S, priority 2023, published 2026)
Square brackets hold non-standard residues; d marks the D form. Ends that are not written are not given here. Aib = CC(C)(N)C(=O)O

How the values were obtained:
[1] = biological target: human GLP-1 receptor (hGLP1R) (human, UniProt P43220 24-463); assay: cell-based or functional assay
[2] = biological target: human secretin receptor (hSCTR) (human, UniProt P47872 23-440); assay: cell-based or functional assay
Chain of human secretin receptor (hSCTR) (P47872 23-440): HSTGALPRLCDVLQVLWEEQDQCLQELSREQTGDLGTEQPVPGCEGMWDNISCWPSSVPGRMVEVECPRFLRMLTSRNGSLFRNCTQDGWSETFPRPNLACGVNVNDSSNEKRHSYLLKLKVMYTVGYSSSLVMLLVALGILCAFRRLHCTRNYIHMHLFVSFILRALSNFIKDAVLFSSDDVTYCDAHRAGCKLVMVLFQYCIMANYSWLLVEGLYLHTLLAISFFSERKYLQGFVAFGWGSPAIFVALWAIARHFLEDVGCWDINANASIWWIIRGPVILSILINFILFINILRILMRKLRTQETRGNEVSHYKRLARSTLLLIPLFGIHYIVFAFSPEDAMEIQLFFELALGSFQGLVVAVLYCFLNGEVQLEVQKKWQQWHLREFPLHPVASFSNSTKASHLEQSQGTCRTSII

Binder | pEC50 hGLPR1 [1] | pEC50 hSCTR [2]
H[Aib]EGTFTSDVS[Aib]LLEGAALQRFIQWLV-NH2 (N-terminus assumed; SMILES CC[C@H](C)[C@H](NC(=O)[C@H](Cc1ccccc1)NC(=O)[C@H](CCCNC(=N)N)NC(=O)[C@H](CCC(N)=O)NC(=O)[C@H](CC(C)C)NC(=O)[C@H](C)NC(=O)[C@H](C)NC(=O)CNC(=O)[C@H](CCC(=O)O)NC(=O)[C@H](CC(C)C)NC(=O)[C@H](CC(C)C)NC(=O)C(C)(C)NC(=O)[C@H](CO)NC(=O)[C@@H](NC(=O)[C@H](CC(=O)O)NC(=O)[C@H](CO)NC(=O)[C@@H](NC(=O)[C@H](Cc1ccccc1)NC(=O)[C@@H](NC(=O)CNC(=O)[C@H](CCC(=O)O)NC(=O)C(C)(C)NC(=O)[C@@H](N)Cc1c[nH]cn1)[C@@H](C)O)[C@@H](C)O)C(C)C)C(=O)N[C@@H](CCC(N)=O)C(=O)N[C@@H](Cc1c[nH]c2ccccc12)C(=O)N[C@@H](CC(C)C)C(=O)N[C@H](C(N)=O)C(C)C) [SEQ ID NO: 179] | 10.1 -log M | 6.3 -log M
H[Aib]EGTFTSDVSRLLEGAALQRFIQWLV-NH2 (N-terminus assumed; SMILES CC[C@H](C)[C@H](NC(=O)[C@H](Cc1ccccc1)NC(=O)[C@H](CCCNC(=N)N)NC(=O)[C@H](CCC(N)=O)NC(=O)[C@H](CC(C)C)NC(=O)[C@H](C)NC(=O)[C@H](C)NC(=O)CNC(=O)[C@H](CCC(=O)O)NC(=O)[C@H](CC(C)C)NC(=O)[C@H](CC(C)C)NC(=O)[C@H](CCCNC(=N)N)NC(=O)[C@H](CO)NC(=O)[C@@H](NC(=O)[C@H](CC(=O)O)NC(=O)[C@H](CO)NC(=O)[C@@H](NC(=O)[C@H](Cc1ccccc1)NC(=O)[C@@H](NC(=O)CNC(=O)[C@H](CCC(=O)O)NC(=O)C(C)(C)NC(=O)[C@@H](N)Cc1c[nH]cn1)[C@@H](C)O)[C@@H](C)O)C(C)C)C(=O)N[C@@H](CCC(N)=O)C(=O)N[C@@H](Cc1c[nH]c2ccccc12)C(=O)N[C@@H](CC(C)C)C(=O)N[C@H](C(N)=O)C(C)C) [SEQ ID NO: 178] | 10.2 -log M | 7.2 -log M
H[Aib]EGTFTSDVSGLLEGAALQRFIQWLV-NH2 (N-terminus assumed; SMILES CC[C@H](C)[C@H](NC(=O)[C@H](Cc1ccccc1)NC(=O)[C@H](CCCNC(=N)N)NC(=O)[C@H](CCC(N)=O)NC(=O)[C@H](CC(C)C)NC(=O)[C@H](C)NC(=O)[C@H](C)NC(=O)CNC(=O)[C@H](CCC(=O)O)NC(=O)[C@H](CC(C)C)NC(=O)[C@H](CC(C)C)NC(=O)CNC(=O)[C@H](CO)NC(=O)[C@@H](NC(=O)[C@H](CC(=O)O)NC(=O)[C@H](CO)NC(=O)[C@@H](NC(=O)[C@H](Cc1ccccc1)NC(=O)[C@@H](NC(=O)CNC(=O)[C@H](CCC(=O)O)NC(=O)C(C)(C)NC(=O)[C@@H](N)Cc1c[nH]cn1)[C@@H](C)O)[C@@H](C)O)C(C)C)C(=O)N[C@@H](CCC(N)=O)C(=O)N[C@@H](Cc1c[nH]c2ccccc12)C(=O)N[C@@H](CC(C)C)C(=O)N[C@H](C(N)=O)C(C)C) [SEQ ID NO: 182] | 10.3 -log M | 6.8 -log M
H[Aib]EGTFTSDVSFLLEGAALQRFIQWLV-NH2 (N-terminus assumed; SMILES CC[C@H](C)[C@H](NC(=O)[C@H](Cc1ccccc1)NC(=O)[C@H](CCCNC(=N)N)NC(=O)[C@H](CCC(N)=O)NC(=O)[C@H](CC(C)C)NC(=O)[C@H](C)NC(=O)[C@H](C)NC(=O)CNC(=O)[C@H](CCC(=O)O)NC(=O)[C@H](CC(C)C)NC(=O)[C@H](CC(C)C)NC(=O)[C@H](Cc1ccccc1)NC(=O)[C@H](CO)NC(=O)[C@@H](NC(=O)[C@H](CC(=O)O)NC(=O)[C@H](CO)NC(=O)[C@@H](NC(=O)[C@H](Cc1ccccc1)NC(=O)[C@@H](NC(=O)CNC(=O)[C@H](CCC(=O)O)NC(=O)C(C)(C)NC(=O)[C@@H](N)Cc1c[nH]cn1)[C@@H](C)O)[C@@H](C)O)C(C)C)C(=O)N[C@@H](CCC(N)=O)C(=O)N[C@@H](Cc1c[nH]c2ccccc12)C(=O)N[C@@H](CC(C)C)C(=O)N[C@H](C(N)=O)C(C)C) [SEQ ID NO: 177] | 10.8 -log M | 6.3 -log M
H[Aib]EGTFTSDVSELLEGAALQRFIQWLV-NH2 (N-terminus assumed; SMILES CC[C@H](C)[C@H](NC(=O)[C@H](Cc1ccccc1)NC(=O)[C@H](CCCNC(=N)N)NC(=O)[C@H](CCC(N)=O)NC(=O)[C@H](CC(C)C)NC(=O)[C@H](C)NC(=O)[C@H](C)NC(=O)CNC(=O)[C@H](CCC(=O)O)NC(=O)[C@H](CC(C)C)NC(=O)[C@H](CC(C)C)NC(=O)[C@H](CCC(=O)O)NC(=O)[C@H](CO)NC(=O)[C@@H](NC(=O)[C@H](CC(=O)O)NC(=O)[C@H](CO)NC(=O)[C@@H](NC(=O)[C@H](Cc1ccccc1)NC(=O)[C@@H](NC(=O)CNC(=O)[C@H](CCC(=O)O)NC(=O)C(C)(C)NC(=O)[C@@H](N)Cc1c[nH]cn1)[C@@H](C)O)[C@@H](C)O)C(C)C)C(=O)N[C@@H](CCC(N)=O)C(=O)N[C@@H](Cc1c[nH]c2ccccc12)C(=O)N[C@@H](CC(C)C)C(=O)N[C@H](C(N)=O)C(C)C) [SEQ ID NO: 180] | 10.8 -log M | 6.7 -log M
H[Aib]EGTFTSDVSWLLEGAALQRFIQWLV-NH2 (N-terminus assumed; SMILES CC[C@H](C)[C@H](NC(=O)[C@H](Cc1ccccc1)NC(=O)[C@H](CCCNC(=N)N)NC(=O)[C@H](CCC(N)=O)NC(=O)[C@H](CC(C)C)NC(=O)[C@H](C)NC(=O)[C@H](C)NC(=O)CNC(=O)[C@H](CCC(=O)O)NC(=O)[C@H](CC(C)C)NC(=O)[C@H](CC(C)C)NC(=O)[C@H](Cc1c[nH]c2ccccc12)NC(=O)[C@H](CO)NC(=O)[C@@H](NC(=O)[C@H](CC(=O)O)NC(=O)[C@H](CO)NC(=O)[C@@H](NC(=O)[C@H](Cc1ccccc1)NC(=O)[C@@H](NC(=O)CNC(=O)[C@H](CCC(=O)O)NC(=O)C(C)(C)NC(=O)[C@@H](N)Cc1c[nH]cn1)[C@@H](C)O)[C@@H](C)O)C(C)C)C(=O)N[C@@H](CCC(N)=O)C(=O)N[C@@H](Cc1c[nH]c2ccccc12)C(=O)N[C@@H](CC(C)C)C(=O)N[C@H](C(N)=O)C(C)C) [SEQ ID NO: 183] | 10.3 -log M | 6.8 -log M
H[Aib]EGTFTSDVSYLLEGAALQRFIQWLV-NH2 (N-terminus assumed; SMILES CC[C@H](C)[C@H](NC(=O)[C@H](Cc1ccccc1)NC(=O)[C@H](CCCNC(=N)N)NC(=O)[C@H](CCC(N)=O)NC(=O)[C@H](CC(C)C)NC(=O)[C@H](C)NC(=O)[C@H](C)NC(=O)CNC(=O)[C@H](CCC(=O)O)NC(=O)[C@H](CC(C)C)NC(=O)[C@H](CC(C)C)NC(=O)[C@H](Cc1ccc(O)cc1)NC(=O)[C@H](CO)NC(=O)[C@@H](NC(=O)[C@H](CC(=O)O)NC(=O)[C@H](CO)NC(=O)[C@@H](NC(=O)[C@H](Cc1ccccc1)NC(=O)[C@@H](NC(=O)CNC(=O)[C@H](CCC(=O)O)NC(=O)C(C)(C)NC(=O)[C@@H](N)Cc1c[nH]cn1)[C@@H](C)O)[C@@H](C)O)C(C)C)C(=O)N[C@@H](CCC(N)=O)C(=O)N[C@@H](Cc1c[nH]c2ccccc12)C(=O)N[C@@H](CC(C)C)C(=O)N[C@H](C(N)=O)C(C)C) [SEQ ID NO: 181] | 10.3 -log M | 6.7 -log M
